Target: the molecule itself
Test: SDS-PAGE

B1: His6-tagged periplasmic copper binding loop (sensor domain) of CopS, CopS(34-151) (domain or fragment, Pseudomonas aeruginosa, UniProt Q9I033 34-151, looked up)
chain: FSRAIDEHFVELDHMAMSAKLAVFRDELRGLGSEQQMRRREAELLRELARHPDLGLRLNGPDGNLWFERLPQPAHPGLPANRELGAPLEPGNDASPRLTVILDISHHQHFLQRMRQLI
Q: Does B1 bind?
A: binds

— paper doi:10.1101/2020.05.13.092544 (bioRxiv, 2020)
